Data on 2 substances can be found in paper PMC11602133.

Several values for one entry are separate records, joined by “and”; a condition that tells them apart may be missing. Identical values can stand only once.

Assay [1] deals with AGAMOUS (AG), in vitro produced (Arabidopsis) (UniProt P17839). Kind of assay: native gel or EMSA; in vitro produced proteins (wheat germ TnT) mixed with a DY-682 labelled ~100 bp DNA probe containing a CArG-box (SAUR10 probe); protein complexes read from the shifted bands on DNA; anti-FLAG antibody added for supershift where FUL-FLAG was used. (In general: Mobility shift assays separate free from complexed probe on a gel.)

Assay [2] has as its target SUPPRESSOR OF OVEREXPRESSION OF CONSTANS 1 (SOC1), in vitro produced (Arabidopsis) (UniProt O64645). Described as above.

Sequence of UniProt O64645 (O64645 whole entry): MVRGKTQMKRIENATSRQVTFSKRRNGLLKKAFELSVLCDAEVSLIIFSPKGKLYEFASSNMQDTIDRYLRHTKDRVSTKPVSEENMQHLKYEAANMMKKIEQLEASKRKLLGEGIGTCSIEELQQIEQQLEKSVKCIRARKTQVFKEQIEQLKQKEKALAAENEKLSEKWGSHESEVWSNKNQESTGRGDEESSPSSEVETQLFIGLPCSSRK
Sequence of AGAMOUS (AG), in vitro produced, P17839 1-252 (natural protein; other documents disagree on this pair) (P17839 whole entry): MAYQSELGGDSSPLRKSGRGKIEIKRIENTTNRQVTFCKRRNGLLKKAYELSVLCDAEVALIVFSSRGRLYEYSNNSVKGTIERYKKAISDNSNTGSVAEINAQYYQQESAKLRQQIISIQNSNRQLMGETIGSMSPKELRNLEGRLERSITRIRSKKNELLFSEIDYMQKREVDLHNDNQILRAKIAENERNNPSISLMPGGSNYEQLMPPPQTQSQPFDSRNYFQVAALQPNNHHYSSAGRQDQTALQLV

The term stoichiometry N denotes a count of units in the complex or per binding partner. In the case of “AGAMOUS (AG), in vitro produced, P17839 1-252 (natural protein; other documents disagree on this pair)”, the stoichiometry N in assay [1] worked out at 2.
Take “SUPPRESSOR OF OVEREXPRESSION OF CONSTANS 1 (SOC1), in vitro produced (from UniProt O64645 1-214) (natural protein)”: the stoichiometry N in assay [2] was 2 and 4.
